Data set [1] in a line: Inhibition of 4-methylumbelliferone glucuronidation by human UGT enzymes from liver microsomes. The arrangement: species or system Microsome. (Liver microsomes are a subcellular fraction often used to study metabolism.)
A short description of data set [2]: Inhibition of AZT glucuronidation by human UGT enzymes from liver microsomes. The arrangement: species or system Microsome.
Substrate in data set [3]: CN1CC[C@]23c4c5ccc(O[C@@H]6O[C@H](C(=O)O)[C@@H](O)[C@H](O)[C@H]6O)c4O[C@H]2[C@@H](O)C=C[C@H]3[C@H]1C5
As to the kind of experiment: (§1) Drug glucuronidation reaction catalyzed by human recombinant UGT1A10.

Substrate in data set [4]: O=C(c1ccc(OCCN2CCCCC2)cc1)c1c(-c2ccc(O[C@H]3O[C@H](C(=O)O)[C@@H](O)[C@H](O)[C@H]3O)cc2)sc2cc(O)ccc12
Described as §1.

Substrate in data set [5]: CC(C)c1cccc(C(C)C)c1O
As to the kind of experiment: not read.

Substrate in data set [6]: O=C1Nc2ccc(Cl)cc2C(c2ccccc2)=N[C@@H]1O
As to the kind of experiment: not read.

Substrate in data set [7]: CC(=O)Nc1ccc(O)cc1
The data set can be described thus: (§2) Drug glucuronidation reaction catalyzed by human recombinant UGT1A9.

Substrate in data set [8]: CCC[S+]([O-])CCCN(CC)CC(O)COc1ccc(C#N)cc1
The data set is described as §2.

Substrate in data set [9]: CCN(CC)C(=O)/C(C#N)=C/c1cc(O)c(O)c([N+](=O)[O-])c1
The data set is described as §2.

Substrate in data set [10]: CCc1c2c(nc3ccc(O)cc13)-c1cc3c(c(=O)n1C2)COC(=O)[C@]3(O)CC
Described as §2.

Substrate in data set [11]: CN1CC[C@H](c2c(O)cc(O)c3c(=O)cc(-c4ccccc4Cl)oc23)[C@H](O)C1
The data set is described as §2.

Substrate in data set [12]: CN1CC[C@]23c4c5ccc(O[C@@H]6O[C@H](C(=O)O)[C@@H](O)[C@H](O)[C@H]6O)c4O[C@H]2[C@@H](O)C=C[C@H]3[C@H]1C5
The description is as §2.

Substrate in data set [13]: COc1c(C)c2c(c(O)c1C/C=C(\C)CCC(=O)O)C(=O)OC2
The data set is described as §2.

Substrate in data set [14]: Cc1ccc(C(=O)c2cc(O)c(O)c([N+](=O)[O-])c2)cc1
The description is as §2.

Substrate in data set [15]: O=C(c1ccc(OCCN2CCCCC2)cc1)c1c(-c2ccc(O)cc2)sc2cc(O[C@@H]3O[C@H](C(=O)O)[C@@H](O)[C@H](O)[C@H]3O)ccc12
Described as §2.

Substrate in data set [16]: O=C(c1ccc(OCCN2CCCCC2)cc1)c1c(-c2ccc(O[C@H]3O[C@H](C(=O)O)[C@@H](O)[C@H](O)[C@H]3O)cc2)sc2cc(O)ccc12
The data set is described as §2.

Substrate in data set [17]: CN1CC[C@]23c4c5ccc(O[C@@H]6O[C@H](C(=O)O)[C@@H](O)[C@H](O)[C@H]6O)c4O[C@H]2[C@@H](O)C=C[C@H]3[C@H]1C5
The data set can be described thus: (§3) Drug glucuronidation reaction catalyzed by human recombinant UGT1A8.

Substrate in data set [18]: COc1c(C)c2c(c(O)c1C/C=C(\C)CCC(=O)O)C(=O)OC2
The data set is described as §3.

Substrate in data set [19]: O=C(c1ccc(OCCN2CCCCC2)cc1)c1c(-c2ccc(O)cc2)sc2cc(O[C@@H]3O[C@H](C(=O)O)[C@@H](O)[C@H](O)[C@H]3O)ccc12
The data set is described as §3.

Substrate in data set [20]: O=C(c1ccc(OCCN2CCCCC2)cc1)c1c(-c2ccc(O[C@H]3O[C@H](C(=O)O)[C@@H](O)[C@H](O)[C@H]3O)cc2)sc2cc(O)ccc12
The data set is described as §3.

Substrate in data set [21]: O=C1CC[C@@]2(O)[C@H]3Cc4ccc(O)c5c4[C@@]2(CCN3CC2CC2)[C@H]1O5
The description is as §3.

Substrate in data set [22]: CCc1c2c(nc3ccc(O)cc13)-c1cc3c(c(=O)n1C2)COC(=O)[C@]3(O)CC
The data set can be described thus: (§4) Drug glucuronidation reaction catalyzed by human recombinant UGT1A7.

Substrate in data set [23]: COc1c(C)c2c(c(O)c1C/C=C(\C)CCC(=O)O)C(=O)OC2
The description is as §4.

Substrate in data set [24]: CCc1c2c(nc3ccc(O)cc13)-c1cc3c(c(=O)n1C2)COC(=O)[C@]3(O)CC
As to the kind of experiment: (§5) Drug glucuronidation reaction catalyzed by human recombinant UGT1A6.

Substrate in data set [25]: CN1CC[C@]23c4c5ccc(O[C@@H]6O[C@H](C(=O)O)[C@@H](O)[C@H](O)[C@H]6O)c4O[C@H]2[C@@H](O)C=C[C@H]3[C@H]1C5
Described as §5.

Regarding `CC(C(=O)O)c1cccc(Oc2ccccc2)c1` (stereo unspecified) [FENOPROFEN], the Ki (usually a measure of affinity in units of concentration, obtained from inhibition or displacement) in data set [1] is 220 µM.
As for `CN1C(=O)C(O)N=C(c2ccccc2)c2cc(Cl)ccc21` (stereo unspecified) [TEMAZEPAM], the results for the Ki in data set [1] and in data set [2] were 217 µM and 580 µM, respectively.

B1: UDP-glucuronosyltransferase 1A10 (Homo sapiens) (protein)
chain: MARAGWTSPVPLCVCLLLTCGFAEAGKLLVVPMDGSHWFTMQSVVEKLILRGHEVVVVMPEVSWQLERSLNCTVKTYSTSYTLEDQNREFMVFAHAQWKAQAQSIFSLLMSSSSGFLDLFFSHCRSLFNDRKLVEYLKESSFDAVFLDPFDTCGLIVAKYFSLPSVVFTRGIFCHHLEEGAQCPAPLSYVPNDLLGFSDAMTFKERVWNHIVHLEDHLFCQYLFRNALEIASEILQTPVTAYDLYSHTSIWLLRTDFVLDYPKPVMPNMIFIGGINCHQGKPLPMEFEAYINASGEHGIVVFSLGSMVSEIPEKKAMAIADALGKIPQTVLWRYTGTRPSNLANNTILVKWLPQNDLLGHPMTRAFITHAGSHGVYESICNGVPMVMMPLFGDQMDNAKRMETKGAGVTLNVLEMTSEDLENALKAVINDKSYKENIMRLSSLHKDRPVEPLDLAVFWVEFVMRHKGAPHLRPAAHDLTWYQYHSLDVIGFLLAVVLTVAFITFKCCAYGYRKCLGKKGRVKKAHKSKTH
With B1, in [3], the Km (usually the substrate concentration at which the rate is half of its maximum) stood at 12600 µM and the Vmax (in general, the rate approached at saturating substrate) came to 0.000629 µmol/min/mg. Further, in data set [4], the Km is 5 µM and the Vmax came to 0.00055 µmol/min/mg.

B2: UDP-glucuronosyltransferase 1A9 (Homo sapiens) (protein)
chain: MACTGWTSPLPLCVCLLLTCGFAEAGKLLVVPMDGSHWFTMRSVVEKLILRGHEVVVVMPEVSWQLGRSLNCTVKTYSTSYTLEDLDREFKAFAHAQWKAQVRSIYSLLMGSYNDIFDLFFSNCRSLFKDKKLVEYLKESSFDAVFLDPFDNCGLIVAKYFSLPSVVFARGILCHYLEEGAQCPAPLSYVPRILLGFSDAMTFKERVRNHIMHLEEHLLCHRFFKNALEIASEILQTPVTEYDLYSHTSIWLLRTDFVLDYPKPVMPNMIFIGGINCHQGKPLPMEFEAYINASGEHGIVVFSLGSMVSEIPEKKAMAIADALGKIPQTVLWRYTGTRPSNLANNTILVKWLPQNDLLGHPMTRAFITHAGSHGVYESICNGVPMVMMPLFGDQMDNAKRMETKGAGVTLNVLEMTSEDLENALKAVINDKSYKENIMRLSSLHKDRPVEPLDLAVFWVEFVMRHKGAPHLRPAAHDLTWYQYHSLDVIGFLLAVVLTVAFITFKCCAYGYRKCLGKKGRVKKAHKSKTH
For B2, the Km in “not read [5]” is 37 µM; in the data set “not read [6]”, 12 µM; in [7], 20900 µM; in data set [8], 1060 µM; in [9], 10 µM; in data set [10] it was 13 µM. Also, the Km came out at 37 µM in [11]; 37400 µM in data set [12]; 291 µM in data set [13]; 66 µM in data set [14]; 25 µM in data set [15]; 13 µM in data set [16]. In addition, the Vmax in “not read [5]” came out at 0.0028 µmol/min/mg; in “not read [6]” it was 3e-06 µmol/min/mg; in data set [7], 0.0063 µmol/min/mg; in [8] it was 9.2e-05 µmol/min/mg; in [9], 0.0018 µmol/min/mg; in data set [10], 2e-05 µmol/min/mg. In addition, the Vmax was 5.6e-05 µmol/min/mg in data set [11]; 3.2e-05 µmol/min/mg in data set [12]; 0.00838 µmol/min/mg in data set [13]; 0.00048 µmol/min/mg in data set [14]; 0.00032 µmol/min/mg in data set [15]; 0.00025 µmol/min/mg in data set [16].

B3: UDP-glucuronosyltransferase 1A8 (Homo sapiens) (protein)
chain: MARTGWTSPIPLCVSLLLTCGFAEAGKLLVVPMDGSHWFTMQSVVEKLILRGHEVVVVMPEVSWQLGKSLNCTVKTYSTSYTLEDLDREFMDFADAQWKAQVRSLFSLFLSSSNGFFNLFFSHCRSLFNDRKLVEYLKESSFDAVFLDPFDACGLIVAKYFSLPSVVFARGIACHYLEEGAQCPAPLSYVPRILLGFSDAMTFKERVRNHIMHLEEHLFCQYFSKNALEIASEILQTPVTAYDLYSHTSIWLLRTDFVLDYPKPVMPNMIFIGGINCHQGKPLPMEFEAYINASGEHGIVVFSLGSMVSEIPEKKAMAIADALGKIPQTVLWRYTGTRPSNLANNTILVKWLPQNDLLGHPMTRAFITHAGSHGVYESICNGVPMVMMPLFGDQMDNAKRMETKGAGVTLNVLEMTSEDLENALKAVINDKSYKENIMRLSSLHKDRPVEPLDLAVFWVEFVMRHKGAPHLRPAAHDLTWYQYHSLDVIGFLLAVVLTVAFITFKCCAYGYRKCLGKKGRVKKAHKSKTH
For the molecule B3, the Km in the data set “not read [5]” stood at 412 µM; in data set [17], 26000 µM; in data set [18], 298 µM; in [19], 8 µM; in data set [20], 59 µM; in data set [21] it was 1550 µM. The Vmax in the data set “not read [5]” was 0.00382 µmol/min/mg; in [17], 1.3e-05 µmol/min/mg; in data set [18] it was 0.0326 µmol/min/mg; in data set [19], 0.00061 µmol/min/mg; in data set [20], 0.002 µmol/min/mg; in data set [21], 0.000495 µmol/min/mg.

B4: UDP-glucuronosyltransferase 1A7 (Homo sapiens) (protein)
chain: MARAGWTGLLPLYVCLLLTCGFAKAGKLLVVPMDGSHWFTMQSVVEKLILRGHEVVVVMPEVSWQLGRSLNCTVKTYSTSYTLEDQDREFMVFADARWTAPLRSAFSLLTSSSNGIFDLFFSNCRSLFNDRKLVEYLKESCFDAVFLDPFDACGLIVAKYFSLPSVVFARGIFCHYLEEGAQCPAPLSYVPRLLLGFSDAMTFKERVWNHIMHLEEHLFCPYFFKNVLEIASEILQTPVTAYDLYSHTSIWLLRTDFVLEYPKPVMPNMIFIGGINCHQGKPVPMEFEAYINASGEHGIVVFSLGSMVSEIPEKKAMAIADALGKIPQTVLWRYTGTRPSNLANNTILVKWLPQNDLLGHPMTRAFITHAGSHGVYESICNGVPMVMMPLFGDQMDNAKRMETKGAGVTLNVLEMTSEDLENALKAVINDKSYKENIMRLSSLHKDRPVEPLDLAVFWVEFVMRHKGAPHLRPAAHDLTWYQYHSLDVIGFLLAVVLTVAFITFKCCAYGYRKCLGKKGRVKKAHKSKTH
Regarding B4, in data set [22], the Km was found to be 5 µM and the Vmax is < 1e-06 µmol/min/mg. Further, in data set [23], the Km is 30 µM and the Vmax turned out to be 0.00037 µmol/min/mg.

B5: UDP-glucuronosyltransferase 1A6 (Homo sapiens) (protein)
chain: MACLLRSFQRISAGVFFLALWGMVVGDKLLVVPQDGSHWLSMKDIVEVLSDRGHEIVVVVPEVNLLLKESKYYTRKIYPVPYDQEELKNRYQSFGNNHFAERSFLTAPQTEYRNNMIVIGLYFINCQSLLQDRDTLNFFKESKFDALFTDPALPCGVILAEYLGLPSVYLFRGFPCSLEHTFSRSPDPVSYIPRCYTKFSDHMTFSQRVANFLVNLLEPYLFYCLFSKYEELASAVLKRDVDIITLYQKVSVWLLRYDFVLEYPRPVMPNMVFIGGINCKKRKDLSQEFEAYINASGEHGIVVFSLGSMVSEIPEKKAMAIADALGKIPQTVLWRYTGTRPSNLANNTILVKWLPQNDLLGHPMTRAFITHAGSHGVYESICNGVPMVMMPLFGDQMDNAKRMETKGAGVTLNVLEMTSEDLENALKAVINDKSYKENIMRLSSLHKDRPVEPLDLAVFWVEFVMRHKGAPHLRPAAHDLTWYQYHSLDVIGFLLAVVLTVAFITFKCCAYGYRKCLGKKGRVKKAHKSKTH
With B5, in data set [24], the Km turned out to be 97 µM and the Vmax came to 2.8e-05 µmol/min/mg. For the same molecule, in data set [25], the Km came out at 18000 µM and the Vmax came out at 2.1e-05 µmol/min/mg.

The values above are taken from ChEMBL document CHEMBL1908105, “UDP-glucuronosyltransferases and clinical drug-drug interactions” (Pharmacol Ther, 2005).
